Literature values, collected in patent publication US6878743B2, “Small molecule inhibitors of caspases” (Sunesis Pharmaceuticals, Inc., priority 2001, dated 2005).

Assays:
[1] = molecular target: T1, caspase-1 (Homo sapiens, UniProt P29466); settings: Garcia-Calvo et al. 1998
T1 sequence (P29466 120-297 limits assumed): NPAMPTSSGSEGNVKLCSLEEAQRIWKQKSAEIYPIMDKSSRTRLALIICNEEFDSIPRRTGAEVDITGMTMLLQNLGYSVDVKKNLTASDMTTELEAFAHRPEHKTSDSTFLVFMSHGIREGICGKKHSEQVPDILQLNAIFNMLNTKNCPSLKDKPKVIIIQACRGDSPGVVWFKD
T1 sequence (P29466 317-404 limits assumed): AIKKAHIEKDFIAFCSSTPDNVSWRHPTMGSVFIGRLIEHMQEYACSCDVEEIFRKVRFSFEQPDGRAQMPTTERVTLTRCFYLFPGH

[2] = molecular target: T2, caspase-3 (Homo sapiens, UniProt P42574); settings: Garcia-Calvo et al. 1998
T2 sequence (P42574 29-175 limits assumed): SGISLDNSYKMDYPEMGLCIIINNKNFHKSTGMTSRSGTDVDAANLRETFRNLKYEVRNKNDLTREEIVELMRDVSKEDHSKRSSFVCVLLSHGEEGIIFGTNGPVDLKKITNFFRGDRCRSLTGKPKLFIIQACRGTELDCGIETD
T2 sequence (P42574 176-277 limits assumed): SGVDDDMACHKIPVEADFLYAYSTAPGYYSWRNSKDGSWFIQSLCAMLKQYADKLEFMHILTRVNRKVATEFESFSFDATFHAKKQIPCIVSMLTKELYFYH

Q: Which Ki [1] does the source give for Ac-Asp-Glu-Val-Asp-CHO here?
A: 18 nM

Q: Which Ki [2] does the source give for Ac-Tyr-Val-Ala-Asp-CHO here?
A: 1960 nM

Q: And the Ki [1]?
A: 0.056 nM
